This data set can be described thus: self-splicing fitness, log relative to wild type (ln ratio); higher = more splicing; Tetrahymena group I intron in knt gene, E. coli kanamycin selection, DiMSum; sequences stand for … in CUCUCU…GGAGGGAAAAGUUAUCAGGCAUGCACCUGGUAGCUAGUCUUUAAACCAAUAGAUUGCAUCGGUUUAAAAGGCAAGACCGUCAAAUUGCGGGAAAGGGGUCAACAGCCGUUCAGUACCAAGUCUCAGGGGAAACUUUGAGAUGGCCUUGCAAAGGGUAUGGUAAUAAGCUGACGGACAUGGUCCUAACCACGCAGCCAAGUCCUAAGUCAACAGAUCUUCUGUUGAUAUGGAUGCAGUUCACAGACUAAAUGUCGGUCGGGGAAGAUGUAUUCUUCUCAUAAGAUAUAGUCGGACCUCUCCUUAAUGGGAGCUAGCGGAUGAAGUGAUGCAACACUGGAGCCGCUGGGAACUAAUUUGUAUGCGAAAGUAUAUUGAUUAGUUUUGGAGUACUCGUGGUCG
The essentials: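 Six replicate transformations of E. coli BL21(DE3) with a pET-22b(+) library were grown overnight at 37°C or 30°C. The library randomised all eight P1ex-region intron nucleotides, the intron lying in the knt kanamycin-resistance gene, and plates were LB agar with or without 25 μg/mL kanamycin plus 100 μg/mL carbenicillin, 50 μM IPTG and 0.2% rhamnose. Pooled colonies were amplicon-sequenced on an Illumina HiSeq 2500, and fitness is the DiMSum error-weighted combination of wild-type-normalised replicate fold changes, kanamycin versus none.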

± gives the uncertainty stated by the source.

On to GUCCAGCAAUAUUACGGCAA, for which the “self-splicing fitness (ln)” value by setting is: (30 °C) -0.33 ± 0.097; (37 °C) -0.363 ± 0.085. On to AUAUAGCAAUAUUACGCCGU, for which the “self-splicing fitness (ln)” value is -0.99 ± 0.24 (30 °C) and -0.413 ± 0.19 (37 °C). The corresponding values for UCAUAGCAAUAUUACGGGAG are -3.39 ± 0.26 and -3.06 ± 0.29. Taken in the same sequence, the figures for ACGAAGCAAUAUUACGUGGC were -2.97 ± 0.11 and -2.04 ± 0.14. In the case of UGUAAGCAAUAUUACGUUUG, the “self-splicing fitness (ln)” value is -1.24 ± 0.069 (30 °C) and -0.871 ± 0.084 (37 °C). The corresponding values for CACAAGCAAUAUUACGGCGA are -1.3 ± 0.092 and -0.406 ± 0.087. Taken in the same sequence, the figures for GUGCAGCAAUAUUACGUGGA were -3.24 ± 0.28 and -2.24 ± 0.19. The corresponding values for GAAUAGCAAUAUUACGCGCU are -0.615 ± 0.13 and -0.0137 ± 0.15. With CUUAAGCAAUAUUACGUUAU, the “self-splicing fitness (ln)” value (30 °C) was -3.09 ± 0.14 and the “self-splicing fitness (ln)” value (37 °C) was -2.51 ± 0.2. The corresponding values for ACACAGCAAUAUUACGUUAU are -3.35 ± 0.11 and -2.65 ± 0.12. The corresponding values for CUUAAGCAAUAUUACGAAAG are -2.9 ± 0.22 and -1.75 ± 0.18. The corresponding values for AGAUAGCAAUAUUACGCUGG are -3.38 ± 0.34 and -1.56 ± 0.25. As to UAAAAGCAAUAUUACGCUCC, the “self-splicing fitness (ln)” value is -2.04 ± 0.46 (30 °C) and -0.325 ± 0.48 (37 °C). Turning to AAUUAGCAAUAUUACGGACC, the “self-splicing fitness (ln)” value (37 °C) was -1.07 ± 0.48.

For the sequence UAUGAGCAAUAUUACGUAGC, the “self-splicing fitness (ln)” value (30 °C) was -3.71 ± 0.3 and the “self-splicing fitness (ln)” value (37 °C) was -2.5 ± 0.29. Take UCCCAGCAAUAUUACGCACU: the “self-splicing fitness (ln)” value runs as follows: (30 °C) -1.64 ± 0.12; (37 °C) -1.04 ± 0.14. With UAGCAGCAAUAUUACGCCAG, the “self-splicing fitness (ln)” value is, setting by setting: (30 °C) -1.46 ± 0.13; (37 °C) -0.751 ± 0.19. The corresponding values for ACUAAGCAAUAUUACGGAGU are -3.72 ± 0.23 and -3.11 ± 0.21.

With ACGGAGCAAUAUUACGGAUU, the “self-splicing fitness (ln)” value reads like this: (30 °C) -3.94 ± 0.31; (37 °C) -0.896 ± 0.16. AUACAGCAAUAUUACGCCAC: the “self-splicing fitness (ln)” value was -3.08 ± 0.24 (30 °C) and -3.12 ± 0.32 (37 °C).

Turning to AUCAAGCAAUAUUACGUCAA, the “self-splicing fitness (ln)” value (30 °C) is -3.14 ± 0.2 and the “self-splicing fitness (ln)” value (37 °C) was -0.928 ± 0.15. The corresponding values for UGGAAGCAAUAUUACGCUGC are -3.48 ± 0.32 and -2.15 ± 0.38. With CAGGAGCAAUAUUACGAAGG, the “self-splicing fitness (ln)” value reads like this: (30 °C) -1.43 ± 0.13; (37 °C) -0.955 ± 0.18.

As for UCCAAGCAAUAUUACGGACG, the “self-splicing fitness (ln)” value (30 °C) was -4.26 ± 0.2 and the “self-splicing fitness (ln)” value (37 °C) is -2.82 ± 0.16. In the case of CCUCAGCAAUAUUACGGUAA, the “self-splicing fitness (ln)” value is, setting by setting: (30 °C) -3.97 ± 0.25; (37 °C) -2.47 ± 0.18. Taken in the same sequence, the figures for UUACAGCAAUAUUACGGGUA were -1.94 ± 0.097 and -0.854 ± 0.087. Taken in the same sequence, the figures for UGCUAGCAAUAUUACGUCAU were -2.72 ± 0.24 and -2.61 ± 0.22. The corresponding values for AUGUAGCAAUAUUACGCAGA are -2.74 ± 0.36 and 0.109 ± 0.18.

For the sequence AGUAAGCAAUAUUACGCGAG, the “self-splicing fitness (ln)” value was -3.33 ± 0.21 (30 °C) and -1.75 ± 0.15 (37 °C). On to UCUAAGCAAUAUUACGUUUC, for which the “self-splicing fitness (ln)” value (37 °C) was -2.3 ± 0.26. UACUAGCAAUAUUACGCUAU: the “self-splicing fitness (ln)” value (30 °C) was -2.8 ± 0.21 and the “self-splicing fitness (ln)” value (37 °C) was -1.32 ± 0.16.

For AUACAGCAAUAUUACGGAGC, the “self-splicing fitness (ln)” value is -3.27 ± 0.28 (30 °C) and -2.78 ± 0.26 (37 °C). Taken in the same sequence, the figures for UUGAAGCAAUAUUACGCGAG were -0.254 ± 0.086 and 0.721 ± 0.12. The corresponding values for GCACAGCAAUAUUACGUUAU are -1.14 ± 0.044 and -0.44 ± 0.054. Regarding CAACAGCAAUAUUACGUAGC, the “self-splicing fitness (ln)” value runs as follows: (30 °C) -4.19 ± 0.12; (37 °C) -2.49 ± 0.12.

As to GCCCAGCAAUAUUACGAAUU, the “self-splicing fitness (ln)” value runs as follows: (30 °C) -2.18 ± 0.077; (37 °C) -0.934 ± 0.094. As to AGAUAGCAAUAUUACGUCAG, the “self-splicing fitness (ln)” value is, setting by setting: (30 °C) -2.66 ± 0.15; (37 °C) -1.01 ± 0.13. The corresponding values for GGACAGCAAUAUUACGCACC are -2.25 ± 0.25 and -1.8 ± 0.38.

Consider UUGUAGCAAUAUUACGUGGU, for which the “self-splicing fitness (ln)” value is -3.35 ± 0.3 (30 °C) and -3.67 ± 0.42 (37 °C). Taken in the same sequence, the figures for CGUCAGCAAUAUUACGAGUA were -2.55 ± 0.28 and -2.69 ± 0.39. Taken in the same sequence, the figures for CACUAGCAAUAUUACGCACC were -2.29 ± 0.18 and -0.458 ± 0.19.

GCCGAGCAAUAUUACGUUGU: the “self-splicing fitness (ln)” value reads like this: (30 °C) -2.48 ± 0.12; (37 °C) -1.54 ± 0.12. The corresponding values for CCUAAGCAAUAUUACGGGGA are -2.84 ± 0.15 and -1.92 ± 0.13. Taken in the same sequence, the figures for UAGCAGCAAUAUUACGAAAU were -1.96 ± 0.24 and -1.66 ± 0.28. In the case of CGCGAGCAAUAUUACGAAAU, the “self-splicing fitness (ln)” value (37 °C) was -2.57 ± 0.27.

For the sequence ACAGAGCAAUAUUACGCUUA, the “self-splicing fitness (ln)” value runs as follows: (30 °C) -2.01 ± 0.22; (37 °C) -1.25 ± 0.16. The corresponding values for CACCAGCAAUAUUACGAAGU are -3.79 ± 0.16 and -1.46 ± 0.11. The corresponding values for GAAGAGCAAUAUUACGGAUC are -1.1 ± 0.071 and -1.1 ± 0.09. Consider AUCGAGCAAUAUUACGGUUC, for which the “self-splicing fitness (ln)” value (30 °C) is -2.93 ± 0.24. For the sequence UAUGAGCAAUAUUACGUUAC, the “self-splicing fitness (ln)” value was -3.37 ± 0.36 (30 °C) and -2.48 ± 0.23 (37 °C). The corresponding values for AAUUAGCAAUAUUACGAAGA are -1.25 ± 0.17 and -0.985 ± 0.16. Taken in the same sequence, the figures for AUGAAGCAAUAUUACGGCGU were 0.47 ± 0.064 and 0.205 ± 0.078. For the sequence ACUCAGCAAUAUUACGCUAU, the “self-splicing fitness (ln)” value is -1.9 ± 0.061 (30 °C) and -0.569 ± 0.07 (37 °C). Turning to ACCAAGCAAUAUUACGGUGC, the “self-splicing fitness (ln)” value reads like this: (30 °C) -2.72 ± 0.14; (37 °C) -2.12 ± 0.23. Consider GUUUAGCAAUAUUACGUCUA, for which the “self-splicing fitness (ln)” value is, setting by setting: (30 °C) -1.25 ± 0.14; (37 °C) -0.618 ± 0.13. The corresponding values for AGACAGCAAUAUUACGAUUA are -1.15 ± 0.062 and -0.971 ± 0.086.

Regarding GGUGAGCAAUAUUACGCUAG, the “self-splicing fitness (ln)” value (37 °C) is -1.65 ± 0.45. In the case of CAACAGCAAUAUUACGGCUA, the “self-splicing fitness (ln)” value (30 °C) is -1.28 ± 0.073 and the “self-splicing fitness (ln)” value (37 °C) was -0.553 ± 0.073. In the case of CUUAAGCAAUAUUACGUCGC, under “37 °C”, the “self-splicing fitness (ln)” value was -1.65 ± 0.33. For the sequence UCCCAGCAAUAUUACGGAUC, the “self-splicing fitness (ln)” value by setting is: (30 °C) -2.71 ± 0.13; (37 °C) -1.64 ± 0.14. The corresponding values for GCUUAGCAAUAUUACGGCUA are -0.299 ± 0.24 and -1.61 ± 0.27. Taken in the same sequence, the figures for AGAGAGCAAUAUUACGAUGA were -3.27 ± 0.24 and -2.37 ± 0.23. The corresponding values for CAUUAGCAAUAUUACGGCAC are -4.19 ± 0.46 and -1.1 ± 0.17. As to ACUCAGCAAUAUUACGCUAC, the “self-splicing fitness (ln)” value by setting is: (30 °C) -3.42 ± 0.27; (37 °C) -2.63 ± 0.23. Taken in the same sequence, the figures for GAUUAGCAAUAUUACGUCCC were -0.907 ± 0.17 and -0.221 ± 0.17. For the sequence GGCCAGCAAUAUUACGGUGU, the “self-splicing fitness (ln)” value reads like this: (30 °C) -0.779 ± 0.058; (37 °C) -0.114 ± 0.07. Taken in the same sequence, the figures for UCCCAGCAAUAUUACGGAAU were -3.64 ± 0.18 and -1.53 ± 0.12. The corresponding values for UGUCAGCAAUAUUACGUGAC are -2.8 ± 0.21 and -2.81 ± 0.26. The corresponding values for GCCUAGCAAUAUUACGUAUA are -3.04 ± 0.25 and -1.63 ± 0.15. Take AUGAAGCAAUAUUACGUCCA: the “self-splicing fitness (ln)” value was -0.138 ± 0.075 (30 °C) and 0.611 ± 0.11 (37 °C).

In the case of GAGUAGCAAUAUUACGGAAU, the “self-splicing fitness (ln)” value is -2.46 ± 0.31 (30 °C) and -1.32 ± 0.23 (37 °C). AGCAAGCAAUAUUACGGGAG: the “self-splicing fitness (ln)” value is, setting by setting: (30 °C) -3.68 ± 0.19; (37 °C) -1.78 ± 0.13. GGAAAGCAAUAUUACGUUUG: the “self-splicing fitness (ln)” value was -3.17 ± 0.26 (30 °C) and -1.79 ± 0.25 (37 °C). With ACCGAGCAAUAUUACGCCUG, the “self-splicing fitness (ln)” value is, setting by setting: (30 °C) -3.61 ± 0.24; (37 °C) -2.44 ± 0.17. Taken in the same sequence, the figures for GGAGAGCAAUAUUACGAGGU were -3.34 ± 0.32 and -3.01 ± 0.37.

As for CUUUAGCAAUAUUACGUUAU, the “self-splicing fitness (ln)” value is, setting by setting: (30 °C) -3.64 ± 0.23; (37 °C) -1.79 ± 0.19. Taken in the same sequence, the figures for AUGCAGCAAUAUUACGUAAC were -2.78 ± 0.2 and -0.366 ± 0.15.

The record behind these values is the supplement of paper PMC7877785.
